What was measured:
[1] = target: the molecule itself; assay: cryo-EM structure
[2] = target: the molecule itself; assay: SEC
[3] = target: the molecule itself; assay: crystal structure

B1: bacteriophage ϕ6 capsid protein P1, wild type, in P1247 procapsids (natural protein)
chain: FNLKVKDLNGSARGLTQAFAIGELKNQLSVGALQLPLQFTRTFSASMTSELLWEVGKGNIDPVMYARLFFQYAQAGGALSVDELVNQFTEYHQSTACNPEIWRKLTAYITGSSNRAIKADAVGKVPPTAILEQLRTLAPSEHELFHHITTDFVCHVLSPLGFILPDAAYVYRVGRTATYPNFYALVDCVRASDLRRMLTALSSVDSKMLQATFKAKGALAPALISQHLANAATTAFERSRGNFDANAVVSSVLTILGRLWSPSTPKELDPSARLRNTNGIDQLRSNLALFIAYQDMVKQRGRAEVIFSDEELSSTIIPWFIEAMSEVSPFKLRPINETTSYIGQTSAIDHMGQPSHVVVYEDWQFAKEITAFTPVKLANNSNQRFLDVEPGISDRMSATLAPIGNTFAVSAFVKNRTAVYEAVSQRGTVNSNGAEMTLGFPSVVERDYALDRDPMVAIAALRTGIVDESLEARASNDLKRSMFNYYAAVMHYAVAHNPEVVVSEHQGVAAEQGSLYLVWNVRTELRIPVGYNAIEGGSIRTPEPLEAIAYNKPIQPSEVLQAKVLDLANHTTSIHIWPWHEASTEFAYEDAYSVTIRNKRYTAEVKEFELLGLGQRRERVRILKPTVAHAIIQMWYSWFVEDDRTLAAARRTSRDDAEKLAIDGRRMQNAVTLLRKIEMIGTTGIGASAVHLAQSRIVDQMAGRGLIDDSSDLHVGINRHRIRIWAGLAVLQMMGLLSRSEAEALTKVLGDSNALGMVVATTDIDPSL
With B1 the “stoichiometry N” value [1] was 120.

B2: bacteriophage ϕ6 capsid protein P1, full length, C-terminal His6-tag (natural protein, UniProt P11126 1-769, looked up)
chain: MFNLKVKDLNGSARGLTQAFAIGELKNQLSVGALQLPLQFTRTFSASMTSELLWEVGKGNIDPVMYARLFFQYAQAGGALSVDELVNQFTEYHQSTACNPEIWRKLTAYITGSSNRAIKADAVGKVPPTAILEQLRTLAPSEHELFHHITTDFVCHVLSPLGFILPDAAYVYRVGRTATYPNFYALVDCVRASDLRRMLTALSSVDSKMLQATFKAKGALAPALISQHLANAATTAFERSRGNFDANAVVSSVLTILGRLWSPSTPKELDPSARLRNTNGIDQLRSNLALFIAYQDMVKQRGRAEVIFSDEELSSTIIPWFIEAMSEVSPFKLRPINETTSYIGQTSAIDHMGQPSHVVVYEDWQFAKEITAFTPVKLANNSNQRFLDVEPGISDRMSATLAPIGNTFAVSAFVKNRTAVYEAVSQRGTVNSNGAEMTLGFPSVVERDYALDRDPMVAIAALRTGIVDESLEARASNDLKRSMFNYYAAVMHYAVAHNPEVVVSEHQGVAAEQGSLYLVWNVRTELRIPVGYNAIEGGSIRTPEPLEAIAYNKPIQPSEVLQAKVLDLANHTTSIHIWPWHEASTEFAYEDAYSVTIRNKRYTAEVKEFELLGLGQRRERVRILKPTVAHAIIQMWYSWFVEDDRTLAAARRTSRDDAEKLAIDGRRMQNAVTLLRKIEMIGTTGIGASAVHLAQSRIVDQMAGRGLIDDSSDLHVGINRHRIRIWAGLAVLQMMGLLSRSEAEALTKVLGDSNALGMVVATTDIDPSL
With B2 the “stoichiometry N” value [2] was 2 and the “stoichiometry N” value [3] was 5.

— article PMC3742642 (Structure (London, England : 1993), 2013)
